Paper PMC4022651, “Substitutional Analysis of the C-Terminal Domain of AbrB Revealed Its Essential Role in DNA-Binding Activity”

Assays:
AbrB wt [1] = target: T1, AbrB wt (Bacillus subtilis 168, UniProt P08874 3-96); assay: EMSA; details: apparent KD', from plot against AbrB tetramer; 20 mM Tris-HCl pH 8, 100 mM KCl, 5 mM MgCl2, 1 mM DTT, 10% glycerol, 0.1 mg/ml poly(dI-dC), room temperature, 20 min; 1.14 nM phyC or 0.95 nM sinIR DNA
T1 sequence: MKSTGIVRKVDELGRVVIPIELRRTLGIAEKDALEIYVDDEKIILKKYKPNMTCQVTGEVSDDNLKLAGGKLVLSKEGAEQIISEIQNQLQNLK

[2] = tested on: AbrB R15A (Bacillus subtilis 168); assay: EMSA; details: apparent KD', from plot against AbrB tetramer; 20 mM Tris-HCl pH 8, 100 mM KCl, 5 mM MgCl2, 1 mM DTT, 10% glycerol, 0.1 mg/ml poly(dI-dC), room temperature, 20 min; 1.14 nM phyC or 0.95 nM sinIR DNA
AbrB Q91A (B. subtilis) [3] = assay: SEC; analytical gel filtration (FPLC) on Superdex 75 5/150 GL; running buffer condition I: 50 mM HEPES pH 7.5, 300 mM NaCl, 2 mM β-mercaptoethanol, no glycerol; 100 µl protein applied; 0.2 ml/min; polymeric forms as % of the areas under the curve of all protein peaks
AbrB Q91A (B. subtilis) [4] = assay: SEC; analytical gel filtration (FPLC) on Superdex 75 5/150 GL; running buffer condition II: 50 mM HEPES pH 7.5, 300 mM NaCl, 2 mM β-mercaptoethanol with 10% glycerol; 60 µl (100 µg) protein applied; 0.2 ml/min; polymeric forms as % of the areas under the curve of all protein peaks
AbrB wt [5] = target: T1, AbrB wt; assay: EMSA; shift above 0.1 uM, no super shift; 20 mM Tris-HCl pH 8, 100 mM KCl, 5 mM MgCl2, 1 mM DTT, 10% glycerol, 0.1 mg/ml poly(dI-dC), room temperature, 20 min; 1.14 nM phyC or 0.95 nM sinIR DNA; details: protein: recombinant; tags: His6; chain copies: 4; label: 5'-32P; blunt

phyC promoter 440 bp
Kd (AbrB wt [1]): 0.66 µM
Kd [2]: 3.4 µM

AbrB Q91A (natural protein)
% of the protein (AUC) in the form with n 4.7 (AbrB Q91A (B. subtilis) [3]): 85%
% of the protein (AUC) in the form with n 8.2 (AbrB Q91A (B. subtilis) [3]): 15%
% of the protein (AUC) in the form with n 4.1 (AbrB Q91A (B. subtilis) [4]): > 95%
stoichiometry N (AbrB Q91A (B. subtilis) [4]): 4.1

B1: sinIR P1 AbrB site 36 bp (dsDNA)
DNA 1: GTGATTTAATGGCAAATGACTTCCAGAGACTAATGA
DNA 2: TCATTAGTCTCTGGAAGTCATTTGCCATTAAATCAC
binding result (AbrB wt [5]): binds
